The values that follow come from patent publication US12465646B2, “Linkers” (Oxford University Innovation Limited, priority 2018, dated 2025).

Data set [1] is described as follows: Recovery time of mice after intravenous injection of peptide-PMO-CAG7. Type of data set: in vivo, C57BL6 mice. The protocol:
Animal experiments and ASO injections. Experiments were carried out in the University of Oxford according to UK legislation. The intravenous injections in HSA-LR C57BL/6 mice were performed by single or repeated administrations via the tail vein. Doses of 30, 12.5, 7.5 and 5 mg/kg of peptide-PMO-CAG7 (SEQ ID NO: 81) were diluted in 0.9% saline and given at a volume of 5-6 μL/g of body weight. KIM-1 levels in C57BL6 female mice measured by ELISA (R&D cat #MKM100) with samples diluted to fit within standard curve. Values were normalised to urinary creatinine levels (Harwell) to account for urine protein concentration.

A further data set has as its system exon skipping. Conditions: in a conjugate with a therapeutic molecule; cited from earlier work.
For data set [2] the following is noted: CPP carrier; cited from earlier work.
For another data set, the system named is human hepatocytes. In words: Hepatocyte cell viability. The format is cell-based. Conditions: 40 μM. The protocol:
Immortalized myoblasts from healthy individual or DM1 patient with 2600 CTG repeats were cultivated in a growth medium consisting of a mix of M199:DMEM (1:4 ratio; Life technologies) supplemented with 20% FBS (Life technologies), 50 μg/ml gentamycin (Life technologies), 25 μg/ml fetuin, 0.5 ng/ml bFGF, 5 ng/ml EGF and 0.2 μg/ml dexamethasone (Sigma-Aldrich). Myogenic differentiation was induced by switching confluent cell cultures to DMEM medium supplemented with 5 μg/ml insulin (Sigma-Aldrich) for myoblasts. For treatment, WT or DM1 cells are differentiated for 4 days. Then, medium was changed with fresh differentiation medium with peptide-PMOs at a 1, 2, 5 10, 20 or 40 μM concentration. Cells were harvested for analysis 48 h after treatment. Cell viability was quantified in after 2 days of transfection of peptide-PMOs at 40 μM in human hepatocytes or at a 1, 2, 5 10, 20 or 40 μM concentration in human myoblasts using a fluorescent-based assay (Promega).

Where no end group is shown, it is not given here. [ ]: non-standard residue; d: D form. GABA = NCCCC(=O)O; βAla = NCCC(=O)O A value given as a limit tells only on which side of the number the result lay.

Take Ac-RBRRBRFQILYBRBR-B [DPEP1.9]: the “recovery time after injection, time AV ± SD” value (“recovery time … time AV ± SD” below) is 0 min in data set [1] (7.5 mg/kg, HSA-LR mouse, 8-12 weeks); >60 min in data set [1] (30 mg/kg, HSA-LR mouse, 30 weeks); 0 min in data set [1] (4× 7.5 mg/kg repeated injections, HSA-LR mouse, 8-12 weeks); 0 min in data set [1] (6× 5 mg/kg repeated injections, HSA-LR mouse, 8-12 weeks).
Regarding “Ac-RBRRBRFQILYBRBR-E (Ac-R[βAla]RR[βAla]RFQILY[βAla]R[βAla]RE; also: Glu linker to [CAG]7 PMO, attachment not given here) [DPEP1.9b]”, the “recovery time … time AV ± SD” value in data set [1] (30 mg/kg, WT mouse, 8-12 weeks) is 15 min.
Still for that read-out and setting: then “Ac-RBRRBRRFQILYRBHBH-Ab (Ac-R[βAla]RR[βAla]RRFQILYR[βAla]H[βAla]H-{GABA-(CAG)7 PMO}) [DPEP3.1a]”, with 10 min.
With “Ac-RRRRRR-(G) (Ac-RRRRRRG; also: conjugated therapeutic molecule via glycine linker) [R6Gly]”, in the data set on exon skipping, the “efficacy in inducing exon skipping” value is given as “reduced efficacy”. Moreover, in data set [2], the toxicity result is listed as “reduced toxicity”.
Consider “Ac-RXRRBRRXR-YQFLI-RXRBRXR-(B) [pip6a, reference compound]”, for which the “recovery time … time AV ± SD” value in data set [1] (12.5 mg/kg, HSA-LR mouse, 8-12 weeks) is on record as >60 min. Also, the “percentage hepatocyte cell viability” value with human hepatocytes is “cell mortality”.
